Where no end group is shown, it is not given here.
Experiments:
Table 9 peptide No. 6 = biological target: T1, Table 9 peptide No. 6 (human, not fully specified); test: PEPSCAN CLIPS peptide ELISA
T1 peptide: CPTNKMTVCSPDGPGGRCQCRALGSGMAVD

Table 9 peptide No. 10 = biological target: T2, Table 9 peptide No. 10 (human, not fully specified); test: PEPSCAN CLIPS peptide ELISA
T2 peptide: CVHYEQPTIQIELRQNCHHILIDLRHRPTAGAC

Table 9 peptide No. 3 = biological target: T3, Table 9 peptide No. 3 (human, not fully specified); test: PEPSCAN CLIPS peptide ELISA
T3 peptide: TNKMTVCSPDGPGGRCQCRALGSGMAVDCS

Table 9 peptide No. 25 = biological target: T4, Table 9 peptide No. 25 (human, not fully specified; cysteine pairing not given here); test: PEPSCAN CLIPS peptide ELISA
T4 peptide: CSPDGPGGRCQCRAL

Table 9 peptide No. 26 = Table 9 peptide No. 26 (human); test: PEPSCAN CLIPS peptide ELISA
Chain of Table 9 peptide No. 26 (human) (peptide, as listed by the source): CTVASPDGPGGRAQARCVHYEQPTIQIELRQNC

Table 9 peptide No. 24 = biological target: T5, Table 9 peptide No. 24 (human, not fully specified); test: PEPSCAN CLIPS peptide ELISA
T5 peptide: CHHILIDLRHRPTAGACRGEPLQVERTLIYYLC

Table 9 peptide No. 1 = biological target: T6, Table 9 peptide No. 1 (human, not fully specified); test: PEPSCAN CLIPS peptide ELISA
T6 peptide: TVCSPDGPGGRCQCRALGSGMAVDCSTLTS

Table 9 peptide No. 21 = biological target: T7, Table 9 peptide No. 21 (human, not fully specified); test: PEPSCAN CLIPS peptide ELISA
T7 peptide: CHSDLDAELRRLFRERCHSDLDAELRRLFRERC

Table 9 peptide No. 7 = biological target: T8, Table 9 peptide No. 7 (human, not fully specified); test: PEPSCAN CLIPS peptide ELISA
T8 peptide: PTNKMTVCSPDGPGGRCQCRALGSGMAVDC

Table 9 peptide No. 12 = biological target: T9, Table 9 peptide No. 12 (human, not fully specified); test: PEPSCAN CLIPS peptide ELISA
T9 peptide: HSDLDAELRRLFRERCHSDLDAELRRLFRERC

Table 9 peptide No. 9 = biological target: T10, Table 9 peptide No. 9 (human, not fully specified; cysteine pairing not given here); test: PEPSCAN CLIPS peptide ELISA
T10 peptide: CTHHILIDLRHRPTAGC

Table 9 peptide No. 20 = biological target: T11, Table 9 peptide No. 20 (human, not fully specified); test: PEPSCAN CLIPS peptide ELISA
T11 peptide: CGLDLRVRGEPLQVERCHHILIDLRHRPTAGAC

Table 9 peptide No. 14 = biological target: T12, Table 9 peptide No. 14 (human, not fully specified; cysteine pairing not given here); test: PEPSCAN CLIPS peptide ELISA
T12 peptide: CDAELRRLFRERYRLHCPK

Table 9 peptide No. 4 = biological target: T13, Table 9 peptide No. 4 (human, not fully specified); test: PEPSCAN CLIPS peptide ELISA
T13 peptide: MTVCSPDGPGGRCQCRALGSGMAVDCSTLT

Table 9 peptide No. 5 = biological target: T14, Table 9 peptide No. 5 (human, not fully specified); test: PEPSCAN CLIPS peptide ELISA
T14 peptide: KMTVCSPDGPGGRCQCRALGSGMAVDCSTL

Table 9 peptide No. 23 = biological target: T15, Table 9 peptide No. 23 (human, not fully specified); test: PEPSCAN CLIPS peptide ELISA
T15 peptide: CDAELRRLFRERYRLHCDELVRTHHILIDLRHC

Table 9 peptide No. 13 = biological target: T16, Table 9 peptide No. 13 (human, not fully specified); test: PEPSCAN CLIPS peptide ELISA
T16 peptide: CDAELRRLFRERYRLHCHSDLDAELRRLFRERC

Table 9 peptide No. 8 = biological target: T17, Table 9 peptide No. 8 (human, not fully specified); test: PEPSCAN CLIPS peptide ELISA
T17 peptide: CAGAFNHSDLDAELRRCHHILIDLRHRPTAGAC

Table 9 peptide No. 22 = biological target: T18, Table 9 peptide No. 22 (human, not fully specified); test: PEPSCAN CLIPS peptide ELISA
T18 peptide: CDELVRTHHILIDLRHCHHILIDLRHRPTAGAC

Table 9 peptide No. 16 = biological target: T19, Table 9 peptide No. 16 (human, not fully specified); test: PEPSCAN CLIPS peptide ELISA
T19 peptide: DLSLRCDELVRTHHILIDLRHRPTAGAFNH

Table 9 peptide No. 28 = biological target: T20, Table 9 peptide No. 28 (human, not fully specified); test: PEPSCAN CLIPS peptide ELISA
T20 peptide: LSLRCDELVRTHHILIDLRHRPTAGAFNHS

Table 9 peptide No. 18 = biological target: T21, Table 9 peptide No. 18 (human, not fully specified; cysteine pairing not given here); test: PEPSCAN CLIPS peptide ELISA
T21 peptide: CFQGRGGLDLRVRGEPC

Table 9 peptide No. 27 = biological target: T22, Table 9 peptide No. 27 (human, not fully specified); test: PEPSCAN CLIPS peptide ELISA
T22 peptide: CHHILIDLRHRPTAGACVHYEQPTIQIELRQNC

Table 9 peptide No. 11 = biological target: T23, Table 9 peptide No. 11 (human, not fully specified); test: PEPSCAN CLIPS peptide ELISA
T23 peptide: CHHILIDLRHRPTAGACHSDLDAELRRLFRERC

Table 9 peptide No. 2 = biological target: T24, Table 9 peptide No. 2 (human, not fully specified); test: PEPSCAN CLIPS peptide ELISA
T24 peptide: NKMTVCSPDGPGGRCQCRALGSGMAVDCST

Table 9 peptide No. 19 = biological target: T25, Table 9 peptide No. 19 (human, not fully specified); test: PEPSCAN CLIPS peptide ELISA
T25 peptide: T15 peptide

Table 9 peptide No. 29 = Table 9 peptide No. 29 (human); test: PEPSCAN CLIPS peptide ELISA
Chain of Table 9 peptide No. 29 (human) (peptide, as listed by the source): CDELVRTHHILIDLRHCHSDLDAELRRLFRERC

Table 9 peptide No. 15 = biological target: T26, Table 9 peptide No. 15 (human, not fully specified); test: PEPSCAN CLIPS peptide ELISA
T26 peptide: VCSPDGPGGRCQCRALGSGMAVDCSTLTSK

Table 9 peptide No. 17 = biological target: T27, Table 9 peptide No. 17 (human, not fully specified); test: PEPSCAN CLIPS peptide ELISA
T27 peptide: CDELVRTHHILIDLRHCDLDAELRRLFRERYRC

human TROP-2 (hTROP-2) [1] = biological target: T28, human TROP-2 (hTROP-2) (human); test: FACS on BxPC-3 cells
T28 chain: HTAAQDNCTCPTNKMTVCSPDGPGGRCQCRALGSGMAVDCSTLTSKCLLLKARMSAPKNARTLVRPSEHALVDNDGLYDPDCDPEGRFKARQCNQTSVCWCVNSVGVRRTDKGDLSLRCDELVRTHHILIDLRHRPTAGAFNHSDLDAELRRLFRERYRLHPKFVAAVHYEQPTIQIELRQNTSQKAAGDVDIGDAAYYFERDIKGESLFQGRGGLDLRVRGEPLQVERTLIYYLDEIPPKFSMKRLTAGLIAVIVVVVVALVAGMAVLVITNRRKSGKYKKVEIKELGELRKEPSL

[2] = biological target: T29, recombinant protein of the extracellular region of hTROP-2 (human); test: ELISA of free antibody after equilibration with antigen in solution
T29 sequence: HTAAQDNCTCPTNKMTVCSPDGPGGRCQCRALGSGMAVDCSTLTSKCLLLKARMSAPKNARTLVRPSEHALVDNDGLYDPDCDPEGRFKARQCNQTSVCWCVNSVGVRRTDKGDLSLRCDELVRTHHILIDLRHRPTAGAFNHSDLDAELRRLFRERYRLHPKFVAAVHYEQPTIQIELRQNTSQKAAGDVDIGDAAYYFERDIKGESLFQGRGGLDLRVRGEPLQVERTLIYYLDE

human TROP-2 (hTROP-2) [3] = biological target: T28, human TROP-2 (hTROP-2); test: FACS on PK-59 cells

B1: anti-hTROP-2 monoclonal antibody K5-116-2-1 (antibody, V domains shown)
VH: QVQLQQPGAELVRPGASVKLSCKASGYTFTSYWITWVKQRPGQGLEWIGNIYPSDSYTNYNQKFRDKATLTVDKSSSTAYMQLSSPTSEDSAVYYCSALFDYWGQGTTLTVSS
VL: DILLTQSPAILSVSPGERVSFSCRASQSIGTSIHWYQQRTNGSPRLLIKYASESISGIPSRFSGSGSGTDFILSINSVESEDIADYYCQQSNSWPFTFGSGTKLEIK
binding of K5-116-2-1 (Table 9 peptide No. 6): 2140 | binding of K5-116-2-1 (Table 9 peptide No. 10): 1500 | binding of K5-116-2-1 (Table 9 peptide No. 3): 2480 | binding of K5-116-2-1 (Table 9 peptide No. 25): 1230 | binding of K5-116-2-1 (Table 9 peptide No. 26): 1220 | binding of K5-116-2-1 (Table 9 peptide No. 24): 1230 | binding of K5-116-2-1 (Table 9 peptide No. 1): 2670 | binding of K5-116-2-1 (Table 9 peptide No. 21): 1330 | binding of K5-116-2-1 (Table 9 peptide No. 7): 1720 | binding of K5-116-2-1 (Table 9 peptide No. 12): 1470 | binding of K5-116-2-1 (Table 9 peptide No. 9): 1590 | binding of K5-116-2-1 (Table 9 peptide No. 20): 1340 | binding of K5-116-2-1 (Table 9 peptide No. 14): 1440 | binding of K5-116-2-1 (Table 9 peptide No. 4): 2440 | binding of K5-116-2-1 (Table 9 peptide No. 5): 2420 | binding of K5-116-2-1 (Table 9 peptide No. 23): 1270 | binding of K5-116-2-1 (Table 9 peptide No. 13): 1460 | binding of K5-116-2-1 (Table 9 peptide No. 8): 1640 | binding of K5-116-2-1 (Table 9 peptide No. 22): 1320 | binding of K5-116-2-1 (Table 9 peptide No. 16): 1420 | binding of K5-116-2-1 (Table 9 peptide No. 28): 1220 | binding of K5-116-2-1 (Table 9 peptide No. 18): 1380 | binding of K5-116-2-1 (Table 9 peptide No. 27): 1220 | binding of K5-116-2-1 (Table 9 peptide No. 11): 1480 | binding of K5-116-2-1 (Table 9 peptide No. 2): 2610 | binding of K5-116-2-1 (Table 9 peptide No. 19): 1370 | binding of K5-116-2-1 (Table 9 peptide No. 29): 1200 | binding of K5-116-2-1 (Table 9 peptide No. 15): 1430 | binding of K5-116-2-1 (Table 9 peptide No. 17): 1390 | mean fluorescence intensity, times that with PE-labeled anti-mouse IgG only (human TROP-2 (hTROP-2) [1]): 121 times | Kd [2]: 0.0269 nM | mean fluorescence intensity, times that with PE-labeled anti-mouse IgG only (human TROP-2 (hTROP-2) [3]): 122 times

Reference: patent US9062100B2, “Anti-human TROP-2 antibody having anti-tumor activity in vivo” (LIVTECH, INC., dated 2015)
